Test results: publication PMC3997432, “A Truncated Form of Rod Photoreceptor PDE6 β-Subunit Causes Autosomal Dominant Congenital Stationary Night Blindness by Interfering with the Inhibitory Activity of the γ-Subunit” (PLoS ONE, 2014)
No end group written: not given here. *: point of attachment. BC = 3-(bromoacetyl)-7-diethyl-aminocoumarin, CCN(CC)c1ccc2cc(C(=O)C*)c(=O)oc2c1

B1: Recombinant bovine rod Pγ-subunit (PDE6 inhibitory γ-subunit) (natural protein)
chain: MNLEPPKAEIRSATRVMGGPVTPRKGPPKFKQRQTRQFKSKPPKKGVQGFGDDIPGMEGLGTDITVICPWEAFNHLELHELAQYGII
B2: CysBC-Pγ24-45 (Cys-Pγ24-45 peptide labeled at the N-terminal Cys with 3-(bromoacetyl)-7-diethyl-aminocoumarin) (peptide)
peptide: C(BC)RKGPPKFKQRQTRQFKSKPPKK
notes: Cys added at the N-terminus of the peptide to carry the probe (Cys-Pγ24-45); also called fluorescently labeled Pγ24-45; polycationic region of Pγ; source: synthetic peptide

Columns and labels:
[1] = target: trypsin-activated bovine PDE6 (tPDE6), PDE6αβ catalytic subunits lacking the inhibitory Pγ subunits (bovine) (UniProt P11541)
[2] = target: T1, PDE6β1-313 (PDE6-specific N-terminal portion of the human rod cGMP phosphodiesterase type 6 β-subunit … (human, UniProt P35913-1 1-313)); assay: other fluorescence titration; CysBC-Pγ24-45 (50 nM) in 1 ml of 100 mM PBS buffer (pH 7.5), increasing concentrations of PDE6β1-313 added; excitation 445 nm, emission 490 nm; fit to a hyperbola; conditions: both partners purified
T1 construct: rod cGMP phosphodiesterase type 6 β-subunit (PDE6β), human, residues 1-313; contains the GAFa domain and a portion of the GAFb domain; amplified from a human retinal cDNA library; Cloned into pET15b with NdeI/BamHI; no removal of the tag is described; also called His6-tagged PDE6β1-313; truncated PDE6β
T1 sequence (P35913 1-313, stated change not applied): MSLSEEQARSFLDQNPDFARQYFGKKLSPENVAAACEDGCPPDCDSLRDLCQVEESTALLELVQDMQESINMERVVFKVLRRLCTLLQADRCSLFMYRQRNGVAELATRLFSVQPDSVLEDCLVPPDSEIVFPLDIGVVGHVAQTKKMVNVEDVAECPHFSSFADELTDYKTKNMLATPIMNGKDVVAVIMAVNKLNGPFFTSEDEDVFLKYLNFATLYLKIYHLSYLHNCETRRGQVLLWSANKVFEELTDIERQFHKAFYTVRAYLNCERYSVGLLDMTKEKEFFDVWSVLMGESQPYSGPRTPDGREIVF

Sequence of trypsin-activated bovine PDE6 (tPDE6), PDE6αβ catalytic subunits lacking the inhibitory Pγ subunits (bovine) (P11541 whole entry, chain 1 of 2): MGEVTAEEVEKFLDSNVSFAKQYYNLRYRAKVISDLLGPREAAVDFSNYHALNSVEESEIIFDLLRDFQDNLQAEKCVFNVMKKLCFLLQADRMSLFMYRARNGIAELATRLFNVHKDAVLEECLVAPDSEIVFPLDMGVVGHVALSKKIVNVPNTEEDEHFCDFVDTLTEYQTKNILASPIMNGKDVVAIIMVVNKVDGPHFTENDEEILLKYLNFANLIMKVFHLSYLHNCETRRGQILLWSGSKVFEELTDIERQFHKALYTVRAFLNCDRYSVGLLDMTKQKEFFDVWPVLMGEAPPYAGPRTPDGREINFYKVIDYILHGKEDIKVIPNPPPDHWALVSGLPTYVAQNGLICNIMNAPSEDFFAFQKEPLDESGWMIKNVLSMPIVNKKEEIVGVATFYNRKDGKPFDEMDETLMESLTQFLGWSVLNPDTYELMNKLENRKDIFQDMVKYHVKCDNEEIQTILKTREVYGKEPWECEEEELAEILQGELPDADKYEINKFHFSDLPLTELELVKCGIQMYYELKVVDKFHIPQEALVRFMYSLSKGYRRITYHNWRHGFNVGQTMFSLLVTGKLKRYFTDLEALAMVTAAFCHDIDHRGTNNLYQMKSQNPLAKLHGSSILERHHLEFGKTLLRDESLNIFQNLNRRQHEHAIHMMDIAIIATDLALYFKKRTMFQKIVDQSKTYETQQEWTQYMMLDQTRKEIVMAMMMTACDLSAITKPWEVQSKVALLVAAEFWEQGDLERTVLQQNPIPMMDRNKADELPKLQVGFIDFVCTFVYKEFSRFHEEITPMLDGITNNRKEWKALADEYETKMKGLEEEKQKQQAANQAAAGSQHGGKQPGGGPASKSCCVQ
Sequence of trypsin-activated bovine PDE6 (tPDE6), PDE6αβ catalytic subunits lacking the inhibitory Pγ subunits (bovine) (P23439 whole entry, chain 2 of 2, further chain): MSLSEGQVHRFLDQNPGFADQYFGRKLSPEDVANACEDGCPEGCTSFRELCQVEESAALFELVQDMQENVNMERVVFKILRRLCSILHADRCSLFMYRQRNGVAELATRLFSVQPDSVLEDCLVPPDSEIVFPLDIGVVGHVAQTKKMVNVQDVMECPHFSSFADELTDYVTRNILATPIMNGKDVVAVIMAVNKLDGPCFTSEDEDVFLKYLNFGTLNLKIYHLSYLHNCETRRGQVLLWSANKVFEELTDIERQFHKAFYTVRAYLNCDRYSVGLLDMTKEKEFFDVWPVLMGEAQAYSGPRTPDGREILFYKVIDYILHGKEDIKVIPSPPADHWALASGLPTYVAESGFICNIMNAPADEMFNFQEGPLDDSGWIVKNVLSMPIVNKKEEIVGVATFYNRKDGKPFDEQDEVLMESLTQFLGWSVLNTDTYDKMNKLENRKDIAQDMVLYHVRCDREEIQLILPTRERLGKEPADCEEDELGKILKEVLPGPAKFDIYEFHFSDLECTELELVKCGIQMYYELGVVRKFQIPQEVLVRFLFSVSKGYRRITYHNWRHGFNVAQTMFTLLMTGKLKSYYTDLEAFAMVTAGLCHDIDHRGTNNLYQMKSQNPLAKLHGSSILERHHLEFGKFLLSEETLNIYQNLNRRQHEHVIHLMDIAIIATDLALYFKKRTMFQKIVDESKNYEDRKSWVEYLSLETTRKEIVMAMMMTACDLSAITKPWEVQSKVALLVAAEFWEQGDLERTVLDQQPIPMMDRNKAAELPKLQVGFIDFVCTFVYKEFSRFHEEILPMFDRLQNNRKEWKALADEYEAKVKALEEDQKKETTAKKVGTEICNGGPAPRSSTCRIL

| Binder | IC50 of the inhibition of tPDE6 (50 pM) activity ([3H]cGMP hydrolysis) by increasing concentrations of Pγ, in the absence of PDE6β1-313 [1] | IC50 of the inhibition of tPDE6 (50 pM) activity ([3H]cGMP hydrolysis) by increasing concentrations of Pγ, in the presence of 2 µM PDE6β1-313 [1] | Kd [2] |
| --- | --- | --- | --- |
| B1 | 0.53 nM | 1.6 nM |  |
| B2 |  |  | 320 nM |
